# Article PMC9482650, “Quantitative fragmentomics allow affinity mapping of interactomes” (Nature Communications, 2022)
# T1: APBA1_1, Q02410
# T1 sequence (Q02410 651-752, limits assumed, looked up): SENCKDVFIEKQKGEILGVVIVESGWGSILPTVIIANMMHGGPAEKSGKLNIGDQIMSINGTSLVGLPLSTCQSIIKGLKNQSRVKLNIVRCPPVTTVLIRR
# T2: APBA1_2, Q02410
# T2 sequence (Q02410 742-832, limits assumed, looked up): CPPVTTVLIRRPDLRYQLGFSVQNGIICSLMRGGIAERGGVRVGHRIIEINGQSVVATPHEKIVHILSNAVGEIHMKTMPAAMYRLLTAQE
# T3: CARD11, Q9BXL7
# T3 sequence (Q9BXL7 662-765, limits assumed, looked up): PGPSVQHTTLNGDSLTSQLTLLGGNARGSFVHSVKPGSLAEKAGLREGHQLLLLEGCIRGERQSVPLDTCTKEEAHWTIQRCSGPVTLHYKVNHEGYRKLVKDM
# T4: DLG3_2, Q92796
# T4 sequence (Q92796 221-321, limits assumed, looked up): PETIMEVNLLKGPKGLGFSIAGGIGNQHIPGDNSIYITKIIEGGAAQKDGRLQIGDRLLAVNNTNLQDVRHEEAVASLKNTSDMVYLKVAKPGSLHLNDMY
# T5: DVL3, Q92997
# T5 sequence (Q92997 244-331, limits assumed, looked up): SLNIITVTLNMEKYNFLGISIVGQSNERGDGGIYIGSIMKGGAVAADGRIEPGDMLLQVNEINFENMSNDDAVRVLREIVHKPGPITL
# T6: FRMPD1, Q5SYB0
# T6 sequence (Q5SYB0 52-145, limits assumed, looked up): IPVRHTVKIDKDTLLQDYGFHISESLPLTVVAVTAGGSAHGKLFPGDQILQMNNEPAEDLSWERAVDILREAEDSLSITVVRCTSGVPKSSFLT
# T7: GRIP1_5, Q9Y3R0
# T7 sequence (Q9Y3R0 568-668, limits assumed, looked up): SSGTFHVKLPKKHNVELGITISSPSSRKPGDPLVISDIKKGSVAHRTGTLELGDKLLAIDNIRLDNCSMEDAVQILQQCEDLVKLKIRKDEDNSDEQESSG
# T8: LIN7B, Q9HAP6
# T8 sequence (Q9HAP6 88-185, limits assumed, looked up): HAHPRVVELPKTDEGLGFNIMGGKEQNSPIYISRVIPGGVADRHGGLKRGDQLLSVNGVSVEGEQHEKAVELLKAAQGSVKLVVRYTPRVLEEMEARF
# T9: MPDZ_12, O75970
# T9 sequence (O75970 1857-1958, limits assumed, looked up): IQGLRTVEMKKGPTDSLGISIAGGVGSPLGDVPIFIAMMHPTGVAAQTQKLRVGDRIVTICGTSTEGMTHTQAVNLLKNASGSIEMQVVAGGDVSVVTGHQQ
# T10: PDZD2_2, O15018
# T10 sequence (O15018 329-429, limits assumed, looked up): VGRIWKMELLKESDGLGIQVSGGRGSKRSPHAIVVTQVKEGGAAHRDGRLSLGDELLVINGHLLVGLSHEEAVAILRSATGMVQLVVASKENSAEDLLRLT
# T11: SNTA1, Q13424
# T11 sequence (Q13424 82-180, limits assumed, looked up): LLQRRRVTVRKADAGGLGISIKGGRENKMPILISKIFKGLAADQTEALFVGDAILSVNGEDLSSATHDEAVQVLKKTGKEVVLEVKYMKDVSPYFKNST
# Assays:
# Experiment in all cases: holdup assay
# Parameters in all cases: key: below the threshold = too weak to quantify, mostly under pKd 3.1 to 4
# Details in all cases: plain residues with an end cap or a label only (N-terminal biotin on a linker: ttds)
# APBA1_1, Q02410 = target: T1, APBA1_1, Q02410
# APBA1_2, Q02410 = target: T2, APBA1_2, Q02410
# CARD11, Q9BXL7 = target: T3, CARD11, Q9BXL7
# DLG1_2, Q12959 = target: DLG1_2, Q12959
# DLG3_2, Q92796 = target: T4, DLG3_2, Q92796
# DLG4_2, P78352 = target: DLG4_2, P78352
# DLG5_1, Q8TDM6 = target: DLG5_1, Q8TDM6
# DVL3, Q92997 = target: T5, DVL3, Q92997
# FRMPD1, Q5SYB0 = target: T6, FRMPD1, Q5SYB0
# FRMPD2_1, Q68DX3 = target: FRMPD2_1, Q68DX3
# FRMPD2_2, Q68DX3 = target: FRMPD2_2, Q68DX3
# GIPC2, Q8TF65 = target: GIPC2, Q8TF65
# GOPC, Q9HD26 = target: GOPC, Q9HD26
# GRIP1_5, Q9Y3R0 = target: T7, GRIP1_5, Q9Y3R0
# IL16_4, Q14005 = target: IL16_4, Q14005
# Inadl_4, Q8NI35 = target: Inadl_4, Q8NI35
# Inadl_9, Q8NI35 = target: Inadl_9, Q8NI35
# LIN7B, Q9HAP6 = target: T8, LIN7B, Q9HAP6
# LNX1_2, Q8TBB1 = target: LNX1_2, Q8TBB1
# MAGI2_3, Q86UL8 = target: MAGI2_3, Q86UL8
# MAGI2_5, Q86UL8 = target: MAGI2_5, Q86UL8
# MPDZ_12, O75970 = target: T9, MPDZ_12, O75970
# NHERF4_4, Q86UT5 = target: NHERF4_4, Q86UT5
# PDZD2_2, O15018 = target: T10, PDZD2_2, O15018
# SCRIB_1, Q14160 = target: SCRIB_1, Q14160
# SCRIB_3, Q14160 = target: SCRIB_3, Q14160
# SNTA1, Q13424 = target: T11, SNTA1, Q13424
# GIPC2, Q8TF65, sequence (Q8TF65 112-203): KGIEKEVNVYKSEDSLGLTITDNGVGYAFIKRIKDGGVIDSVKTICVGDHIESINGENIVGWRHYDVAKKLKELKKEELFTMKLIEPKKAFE
# IL16_4, Q14005, sequence (Q14005 1229-1329): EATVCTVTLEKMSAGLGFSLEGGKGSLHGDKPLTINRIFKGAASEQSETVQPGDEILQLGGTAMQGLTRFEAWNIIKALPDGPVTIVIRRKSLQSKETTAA
# MAGI2_3, Q86UL8, sequence (Q86UL8 600-682): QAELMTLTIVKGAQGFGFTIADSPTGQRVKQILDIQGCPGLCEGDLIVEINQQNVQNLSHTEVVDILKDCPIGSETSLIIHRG
# DLG4_2, P78352, sequence (P78352 155-259): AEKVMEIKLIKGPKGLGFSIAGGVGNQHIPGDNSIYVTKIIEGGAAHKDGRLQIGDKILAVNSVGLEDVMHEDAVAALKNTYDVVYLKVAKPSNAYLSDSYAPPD
# FRMPD2_2, Q68DX3, sequence (Q68DX3 944-1038): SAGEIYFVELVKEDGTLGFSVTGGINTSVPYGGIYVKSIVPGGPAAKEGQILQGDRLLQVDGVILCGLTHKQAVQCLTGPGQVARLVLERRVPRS
# SCRIB_3, Q14160, sequence (Q14160 999-1103): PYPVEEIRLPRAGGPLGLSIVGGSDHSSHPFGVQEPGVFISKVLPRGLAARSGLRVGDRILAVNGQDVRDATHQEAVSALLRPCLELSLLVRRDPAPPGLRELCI
# DLG5_1, Q8TDM6, sequence (Q8TDM6 617-713): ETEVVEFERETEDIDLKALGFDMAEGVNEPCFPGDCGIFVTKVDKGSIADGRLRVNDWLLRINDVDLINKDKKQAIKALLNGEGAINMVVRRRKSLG
# SCRIB_1, Q14160, sequence (Q14160 718-814): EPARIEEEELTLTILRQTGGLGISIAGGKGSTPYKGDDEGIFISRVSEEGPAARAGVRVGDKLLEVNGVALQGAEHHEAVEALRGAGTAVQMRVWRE
# NHERF4_4, Q86UT5, sequence (Q86UT5 464-550): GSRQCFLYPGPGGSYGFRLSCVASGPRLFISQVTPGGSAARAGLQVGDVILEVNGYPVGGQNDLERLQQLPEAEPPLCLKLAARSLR
# Inadl_9, Q8NI35, sequence (Q8NI35 1530-1615): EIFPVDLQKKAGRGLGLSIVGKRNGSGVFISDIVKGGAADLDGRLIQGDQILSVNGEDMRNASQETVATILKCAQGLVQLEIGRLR
# FRMPD2_1, Q68DX3, sequence (Q68DX3 770-861): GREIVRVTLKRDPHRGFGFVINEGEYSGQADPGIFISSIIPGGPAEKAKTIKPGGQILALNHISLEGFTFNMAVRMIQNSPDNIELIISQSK
# DLG1_2, Q12959, sequence (Q12959 314-412): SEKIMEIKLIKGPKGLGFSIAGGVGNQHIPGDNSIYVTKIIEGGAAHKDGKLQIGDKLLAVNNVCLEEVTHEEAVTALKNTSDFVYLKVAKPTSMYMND
# Inadl_4, Q8NI35, sequence (Q8NI35 547-651): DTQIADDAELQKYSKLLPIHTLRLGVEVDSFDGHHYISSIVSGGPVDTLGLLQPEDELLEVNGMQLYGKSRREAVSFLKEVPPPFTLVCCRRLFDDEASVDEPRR
# LNX1_2, Q8TBB1, sequence (Q8TBB1 371-470): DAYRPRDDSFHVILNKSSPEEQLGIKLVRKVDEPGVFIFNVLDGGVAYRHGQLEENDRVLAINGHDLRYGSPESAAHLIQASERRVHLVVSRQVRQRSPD
# MAGI2_5, Q86UL8, sequence (Q86UL8 915-1017): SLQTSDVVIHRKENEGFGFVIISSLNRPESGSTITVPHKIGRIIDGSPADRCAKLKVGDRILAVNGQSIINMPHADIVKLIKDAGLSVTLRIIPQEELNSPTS
binder,measurement,setting,value
"STLTIFETAL [ABCC4, O15439]",pKd,"APBA1_1, Q02410",below the threshold
same,pKd,"APBA1_2, Q02410",4.03
same,pKd,"CARD11, Q9BXL7",below the threshold
same,pKd,"DLG1_2, Q12959",4.57
same,pKd,"DLG3_2, Q92796",4.35
same,pKd,"DLG4_2, P78352",4.23
same,pKd,"DLG5_1, Q8TDM6",below the threshold
same,pKd,"DVL3, Q92997",below the threshold
same,pKd,"FRMPD1, Q5SYB0",below the threshold
same,pKd,"FRMPD2_1, Q68DX3",3.84
same,pKd,"FRMPD2_2, Q68DX3",3.77
same,pKd,"GIPC2, Q8TF65",below the threshold
same,pKd,"GOPC, Q9HD26",4.52
same,pKd,"GRIP1_5, Q9Y3R0",below the threshold
same,pKd,"IL16_4, Q14005",below the threshold
same,pKd,"Inadl_4, Q8NI35",below the threshold
same,pKd,"Inadl_9, Q8NI35",below the threshold
same,pKd,"LIN7B, Q9HAP6",4.44
same,pKd,"LNX1_2, Q8TBB1",below the threshold
same,pKd,"MAGI2_3, Q86UL8",below the threshold
same,pKd,"MAGI2_5, Q86UL8",4.69
same,pKd,"MPDZ_12, O75970",below the threshold
same,pKd,"NHERF4_4, Q86UT5",4.24
same,pKd,"PDZD2_2, O15018",3.65
same,pKd,"SCRIB_1, Q14160",6.07
same,pKd,"SCRIB_3, Q14160",5.59
same,pKd,"SNTA1, Q13424",4.75
